Assay results from US6964763.

Molecular target: Recombinant baculovirus-expressed HIV-1 gp120 derived from the LAV isolate (HIV-1 isolate LAV (LAI)), P03377
Assay: competition: 125I-CD4 on immobilized gp120, 10-fold molar excess of peptide; isolate (MN or LAI) not stated

Binder: CSVTCG (modifications not checked) [CSVTCG peptide derived from TSP1 properdin-like Type 1 repeat]
- % inhibition: 53%
